A short description of series [1]: Stability study after storage: chemical purity (peptide purity) by RP-UV-HPLC. Type of series: physicochemical.
The conditions of series [2]: after 72 hours at 25° C.

Take `C[C@@H](O)[C@H](NC(=O)[C@@H]1CSSC[C@H](NC(=O)[C@@H](Cc2ccccc2)NC(=O)CN2CCN(CC(=O)O)CCN(CC(=O)O)CCN(CC(=O)O)CC2)C(=O)N[C@@H](Cc2ccc(O)cc2)C(=O)N[C@H](Cc2c[nH]c3ccccc23)C(=O)N[C@@H](CCCCN)C(=O)N[C@@H]([C@@H](C)O)C(=O)N1)C(=O)O` [DOTA-TATE, DOTA-d-Phe-Cys-Tyr-d-Trp-Lys-Thr-Cys-Thr (cyclo 2,7)]: the “stability with respect to chemical purity” value in series [1] (32° C. for 12 h and 25° for 60 h) was “such high stability was found”. For the same compound, the chemical purity in series [1] (after 48 hours at 32° C.) and in series [1] (after 72 hours at 25° C.) was 100% each time.

As for “hydrogen [N-{[4,7,10-tris(carboxylato-κO-methyl)-1,4,7,10-tetraazacyclododecan-1-yl-κ^4N^1,N^4,N^7,N^10]acetyl-κO}-D-phenylalanyl-L-cysteinyl-tyrosyl-D-tryptophyl-L-lysyl-L-threonyl-L-cysteinyl-L-threoninato cyclic (2→7)-disulfide(4-)](177Lu)lutetate(1-) [^177Lu-DOTA-TATE]”, the radiochemical purity result in series [2] is on record as “at least 95%”.

Source of the values: patent US12168063B2, “Stable, concentrated radionuclide complex solutions” (Advanced Accelerator Applications SA, priority 2018, dated 2024).
